Bridge positions count the residues as written; N and C are the ends. Ends that are not written are not given here. * marks the point of attachment. Acryloyl = C=CC(=O)*

In experiment [1] the target is AlexaFluor555-labeled TNFα (human, UniProt P01375 77-233, AlexaFluor 555 label (protein labeling kit; sites not stated)). Kind of experiment: FRET or BRET. For orientation: BRET reads energy transfer from a luciferase to a nearby fluorophore.
The target of experiment [2] is recombinant human TNF-α (human, UniProt P01375 77-233). Kind of experiment: uptake of the cytokine into peptide-functionalised hydrogels.
Sequence of recombinant human TNF-α (P01375 77-233): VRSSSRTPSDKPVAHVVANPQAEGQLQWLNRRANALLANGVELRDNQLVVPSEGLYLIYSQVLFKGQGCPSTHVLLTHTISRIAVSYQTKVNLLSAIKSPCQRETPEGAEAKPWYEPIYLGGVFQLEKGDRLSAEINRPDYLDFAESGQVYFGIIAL

Sequence of AlexaFluor555-labeled TNFα (P01375 77-233): as above

B1: acryl-(FITC)WP9QY (peptide)
peptide: KYCWSQYLCY
modifications: N-terminus acrylated (acrylic acid); FITC conjugated to the additional lysine; intramolecular disulfide bond
As for B1, in experiment [1], the binding result is “binds”.
For Acryloyl-YCWSQYLCY (disulfide 2-8 (inferred)) [acryl-WP9QY], in experiment [2], the binding result was “binds”.

The values above are taken from publication PMC2752207 (Biomaterials, 2009).
